Experimental findings from PMC13184981 (ACS Chemical Biology, 2026) are described below.

This data set concerns the molecule itself. Briefly: mass photometry.

B1: Purified recombinant full-length LIMK1 (natural protein)
chain: MRLTLLCCTWREERMGEEGSELPVCASCGQRIYDGQYLQALNADWHADCFRCCDCSASLSHQYYEKDGQLFCKKDYWARYGESCHGCSEQITKGLVMVAGELKYHPECFICLTCGTFIGDGDTYTLVEHSKLYCGHCYYQTVVTPVIEQILPDSPGSHLPHTVTLVSIPASSHGKRGLSVSIDPPHGPPGCGTEHSHTVRVQGVDPGCMSPDVKNSIHVGDRILEINGTPIRNVPLDEIDLLIQETSRLLQLTLEHDPHDTLGHGLGPETSPLSSPAYTPSGEAGSSARQKPVLRSCSIDRSPGAGSLGSPASQRKDLGRSESLRVVCRPHRIFRPSDLIHGEVLGKGCFGQAIKVTHRETGEVMVMKELIRFDEETQRTFLKEVKVMRCLEHPNVLKFIGVLYKDKRLNFITEYIKGGTLRGIIKSMDSQYPWSQRVSFAKDIASGMAYLHSMNIIHRDLNSHNCLVRENKNVVVADFGLARLMVDEKTQPEGLRSLKKPDRKKRYTVVGNPYWMAPEMINGRSYDEKVDVFSFGIVLCEIIGRVNADPDYLPRTMDFGLNVRGFLDRYCPPNCPPSFFPITVRCCDLDPEKRPSFVKLEHWLETLRMHLAGHLPLGPQLEQLDRGFWETYRRGESGLPAHPEVPD
notes: source: insect cells, baculovirus, purified (Ni-NTA, SP Sepharose, TEV cleavage, SEC)
As to B1, the stoichiometry N (commonly a count of units in the complex or per binding partner) came out at 2.
